This note sets out measurements from FireProtDB (doi:10.1021/bi000849s).

Sequences and labels used below:
B1: Lysozyme C, P61626 (parent)
chain: MKALIVLGLVLLSVTVQGKVFERCELARTLKRLGMDGYRGISLANWMCLAKWESGYNTRATNYNAGDRSTDYGIFQINSRYWCNDGKTPGAVNACHLSCSALLQDNIADAVACAKRVVRDPQGIRAWVAWRNRCQNRDVRQYVQGCGV

This data set covers variants of B1. Conditions: Homo sapiens, Thermal, DSC, reversible: yes, structure 1LZ1, whole UniProt chain shown; for ddG of mutation (higher = less stable) / unfolding free energy: 65 °C.
The mark [1] stands for this setting: pH 2.2, glycine hydrochloride 0.05 M.
[2] abbreviates: pH 2.3, glycine hydrochloride 0.05 M, KCl 0.2 M.
The mark [3] stands for this setting: pH 4.5, sodium acetate 0.02 M, KCl 0.2 M.

For orientation: Tm means the temperature at the midpoint of the melting transition. As for MKALIVLGLVLLSVTVQGKVFERCELARTLKRLGMDGYRGISLANWMCLAKWESGYNTRATNYNAGDRSTDYGIFQINSRYWCNNGKTPGAVNACHLSCSALLQDNIADAVACAKRVVRDPQGIRAWVAWRNRCQNRDVRQYVQGCGV, the Tm by setting is: under setting [1], 56.8 °C; under setting [2], 55.2 °C; (pH 4, sodium acetate 0.02 M) 74 °C; under setting [3], 72.5 °C. Moreover, the “change of melting temperature, mutant - wild type (higher = more stable)” value (from here on “change of melting temperature, mutant”) under setting [1] was -0.7 °C; the “change of melting temperature, mutant” value under setting [2] is -1 °C; the “change of melting temperature, mutant” value (pH 4, sodium acetate 0.02 M) is -6.1 °C; the “change of melting temperature, mutant” value under setting [3] was -5.2 °C. Further, the “ddG of mutation (higher = less stable)” value reads like this: (pH 4, sodium acetate 0.02 M) 2.25 kcal/mol; under setting [3], 1.7 kcal/mol. In addition, the unfolding free energy stood at 3.18 kcal/mol (pH 4, sodium acetate 0.02 M) and 2.37 kcal/mol under setting [3].

In the case of MKALIVLGLVLLSVTVQGKVFERCELARTLKRLGMDGYRGISLANWMCLAKWESGYNTRATNYNAGNRSTDYGIFQINSRYWCNDGKTPGAVNACHLSCSALLQDNIADAVACAKRVVRDPQGIRAWVAWRNRCQNRDVRQYVQGCGV, under setting [1], the Tm was 57.5 °C and the “change of melting temperature, mutant” value was 0 °C. Also, for the setting “pH 4, sodium acetate 0.02 M”, the “ddG of mutation (higher = less stable)” value was 1 kcal/mol; the unfolding free energy was 4.42 kcal/mol; the Tm worked out at 77.4 °C; the “change of melting temperature, mutant” value is -2.7 °C.

Take MKALIVLGLVLLSVTVQGKVFERCQLARTLKRLGMDGYRGISLANWMCLAKWESGYNTRATNYNAGDRSTDYGIFQINSRYWCNDGKTPGAVNACHLSCSALLQDNIADAVACAKRVVRDPQGIRAWVAWRNRCQNRDVRQYVQGCGV: under setting [1], the midpoint of thermal melting (Tm) is 57.8 °C and the “change of melting temperature, mutant” value is 0.3 °C. Moreover, under setting [2], the Tm was determined as 54.6 °C and the “change of melting temperature, mutant” value was -1.6 °C. In addition, for the setting “pH 4, sodium acetate 0.02 M”, the “ddG of mutation (higher = less stable)” value amounted to 1.43 kcal/mol; the unfolding free energy was found to be 3.99 kcal/mol; the Tm is 76.2 °C; the “change of melting temperature, mutant” value was -3.9 °C. In addition, under setting [3], the “ddG of mutation (higher = less stable)” value stood at 1.29 kcal/mol; the unfolding free energy came to 2.77 kcal/mol; the Tm stood at 75.5 °C; the “change of melting temperature, mutant” value is -2.2 °C.

As for MKALIVLGLVLLSVTVQGKVFERCELARTLKRLGMDGYRGISLANWMCLAKWESGYNTRATNYNAGDRSTDYGIFQINSRYWCNDGKTPGAVNACHLSCSALLQDNIADAVACAKRVVRNPQGIRAWVAWRNRCQNRDVRQYVQGCGV, under setting [1], the melting temperature (Tm) came to 58.1 °C and the “change of melting temperature, mutant” value turned out to be 0.6 °C. Moreover, under setting [2], the Tm worked out at 56.7 °C and the “change of melting temperature, mutant” value was found to be 0.5 °C. In addition, under “pH 4, sodium acetate 0.02 M”, the “ddG of mutation (higher = less stable)” value came to 0.67 kcal/mol and the unfolding free energy came to 4.76 kcal/mol. Under setting [3], the “ddG of mutation (higher = less stable)” value is -0.07 kcal/mol; the unfolding free energy stood at 4.13 kcal/mol; the Tm is 77.9 °C; the “change of melting temperature, mutant” value stood at 0.2 °C.

As to MKALIVLGLVLLSVTVQGKVFERCELARTLKRLGMDGYRGISLANWMCLAKWESGYNTRATNYNAGDRSTDYGIFQINSRYWCNDGKTPGAVNACHLSCSALLQDNIADAVACAKRVVRDPQGIRAWVAWRNRCQNRNVRQYVQGCGV, under setting [1], the Tm came out at 57.8 °C and the “change of melting temperature, mutant” value worked out at 0.3 °C. Under setting [2], the Tm was 56.9 °C and the “change of melting temperature, mutant” value is 0.7 °C. Under “pH 4, sodium acetate 0.02 M”, the “ddG of mutation (higher = less stable)” value stood at 0.67 kcal/mol; the unfolding free energy came out at 4.76 kcal/mol; the Tm was 78.3 °C; the “change of melting temperature, mutant” value is -1.8 °C. For the same variant, under setting [3], the “ddG of mutation (higher = less stable)” value is -0.05 kcal/mol; the unfolding free energy worked out at 4.13 kcal/mol; the melting temperature (Tm) amounted to 77.8 °C; the “change of melting temperature, mutant” value was 0.1 °C.

Consider MKALIVLGLVLLSVTVQGKVFERCELARTLKRLGMNGYRGISLANWMCLAKWESGYNTRATNYNAGDRSTDYGIFQINSRYWCNDGKTPGAVNACHLSCSALLQDNIADAVACAKRVVRDPQGIRAWVAWRNRCQNRDVRQYVQGCGV, for which the melting temperature (Tm) reads like this: under setting [1], 56 °C; (pH 4, sodium acetate 0.02 M) 75.5 °C. For the same variant, the “change of melting temperature, mutant” value is -1.5 °C under setting [1] and -4.6 °C (pH 4, sodium acetate 0.02 M).
